Assay in all cases: fluorescence anisotropy
(Fluorescence polarisation rises when a labelled molecule tumbles more slowly, as on binding a larger partner.)

Data set [1] deals with htCREBD,4 (unphosphorylated) (UniProt P15337-1 1-341, C90A;V118D;C300S;C310S;C337S;del162-272).
The target of data set [2] is T1, CREB bZip (Rattus norvegicus, UniProt P15337-1 270-341, C300S;C310S;C337S).
T1 sequence: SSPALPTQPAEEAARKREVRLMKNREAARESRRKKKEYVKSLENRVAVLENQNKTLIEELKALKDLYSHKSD

Data set [3] deals with T1, CREB bZip. The source holds these as a separate data set.

Like-named read-outs stand apart in the source and are kept apart here.

B1: half-site CRE 14-mer (dsDNA)
DNA 1: ATCTGCGTCAGAGT
DNA 2: ACTCTGACGCAGAT
One may read the Kd as the constant that tells how readily two partners part at equilibrium. High values mean lower affinity, low ones higher affinity. B1: the binding result in data set [1] was “binds”. Further, the Kd with CREB bZip [2] was ~0.038 µM; with CREB bZip [3], ~0.032 µM.

(Values after article PMC6474821.)
